These results are taken from PMC4151697 (Biochemistry, 2014).

Series [1] deals with the molecule itself. Briefly: SEC.
The series “light scattering” concerns the molecule itself. The series is described as follows: light scattering.
Series [2] deals with the molecule itself. The series is described as follows: SEC. The source holds these as a separate data set. (In general: In gel filtration, larger molecules generally elute earlier.)

B1: Cp149-C61S (Cp149 with C61 mutated to serine) (domain or fragment, hepatitis B virus, UniProt P03147 1-149, looked up)
chain: MDIDPYKEFGATVELLSFLPSDFFPSVRDLLDTAAALYRDALESPEHCSPHHTALRQAILSWGDLMTLATWVGTNLEDPASRDLVVSYVNTNVGLKFRQLLWFHISCLTFGRETVLEYLVSFGVWIRTPPAYRPPNAPILSTLPETTVV
In “SEC [1]”, B1 gave a pseudocritical concentration of 5.9 µM.

B2: Cp149red (reduced HBV core protein assembly domain, amino acids 1–149, homodimer) (domain or fragment, hepatitis B virus, UniProt P03147 1-149, looked up)
chain: MDIDPYKEFGATVELLSFLPSDFFPSVRDLLDTAAALYRDALESPEHCSPHHTALRQAILCWGDLMTLATWVGTNLEDPASRDLVVSYVNTNVGLKFRQLLWFHISCLTFGRETVLEYLVSFGVWIRTPPAYRPPNAPILSTLPETTVV
In the case of B2, the pseudocritical concentration in the series “SEC [1]” is 4.7 µM.

B3: Cp149re-red (partially re-reduced Cp149ox) (domain or fragment, hepatitis B virus, UniProt P03147 1-149, looked up)
chain: MDIDPYKEFGATVELLSFLPSDFFPSVRDLLDTAAALYRDALESPEHCSPHHTALRQAILCWGDLMTLATWVGTNLEDPASRDLVVSYVNTNVGLKFRQLLWFHISCLTFGRETVLEYLVSFGVWIRTPPAYRPPNAPILSTLPETTVV
modifications: intradimer C61–C61 disulfide in most dimers (only ∼20% of Cp149ox could be reduced)
In “SEC [1]”, B3 showed a pseudocritical concentration of 6.5 µM.

B4: Cp149ox (fully oxidized Cp149 dimer with the intradimer C61–C61 disulfide) (domain or fragment, hepatitis B virus, UniProt P03147 1-149, looked up)
chain: MDIDPYKEFGATVELLSFLPSDFFPSVRDLLDTAAALYRDALESPEHCSPHHTALRQAILCWGDLMTLATWVGTNLEDPASRDLVVSYVNTNVGLKFRQLLWFHISCLTFGRETVLEYLVSFGVWIRTPPAYRPPNAPILSTLPETTVV
modifications: intradimer C61–C61 disulfide (fully oxidized)
In the case of B4, in the series “light scattering”, the “amount of capsid relative to Cp149red” value was roughly 40% and the “fold slower elongation rate constant than Cp149red” value was determined as 1.7 fold. Besides, the affinity in “SEC [2]”, expressed as Kd, was 4 ± 0.2 µM.
